In one test the target is T1, human GPC3 on cells (human, UniProt P51654 25-563).
T1 construct: whole, on cells; One molecule is used for both CHO-hGPC3 transfectants and GPC3+ HepG2 cells; The assay field names the cell; also called CHO-hGPC3 (clone 2B10); CHO-human GPC3
In words: flow cytometry, CHO-human GPC3 cells. The protocol:
(§1) CHO-human GPC3 and CHO-cynomolgus monkey GPC3 stably-transfected cells in the logarithmic growth phase were taken, adjusted to 5×10⁵ cells/ml using 4% calf serum (Hyclone, SH30626.06), and added to a 96-well U-shaped plate at 100 μl/well cell suspension. The centrifugation was performed at 300 g for 5 min. The supernatant was discarded. 100 μL of gradient diluted antibody (initial concentration: 1800 nM, 3-fold dilution, 10 gradients) was added to each well, and incubated at 4° C. for 60 min. The secondary antibody Alexa Fluro647 labeled goat anti-human IgG Fc (1:300 dilution) was added at 50 μL/well and incubated on ice for 20 min. After washing once, propidium iodide solution (1:300) was added at 50 μL/well. Incubation was performed for 5 min before detection by flow cytometry.
(A flow cytometer gives signals particle by particle.)

Test [1] concerns the target T2, cynomolgus monkey GPC3 on CHO cells (cynomolgus monkey, UniProt A0A2K5VK50 24-579).
T2 construct: whole, on cells; also called CHO-cynoGPC3 (clone 4D6); CHO-cynomolgus monkey GPC3
In words: flow cytometry, CHO-cynomolgus monkey GPC3 cells. How it is done:
as §1

A further test addresses T3, human CD3 on T cells (human, UniProt P07766 23-207).
T3 construct: whole, on cells; The target is the native CD3 complex on cells; The recombinant antigen used elsewhere is the εγ heterodimer; also called CD3 on Jurkat cells; CD3 on human peripheral blood CD4+ and CD8+ T cells
In words: flow cytometry, human peripheral blood CD4+ T cells. How it is done: Fresh human peripheral blood was taken and PBMCs were isolated by Ficoll-Paque Plus (GE, 17-1440-03). The PBMCs were adjusted to 5×10⁵ cells/mL with 4% calf serum (Hyclone, SH30626.06), and added to a 96-well U-plate at 100 μL/well. The centrifuged supernatant was discarded. 100 μL of gradient diluted antibody (initial concentration: 1800 nM, 3-fold dilution, 11 gradients) was added to each well and incubated at 4° C. for 60 minutes. The secondary antibody Alexa Fluro647 labeled goat anti-human IgG Fc (1:300 dilution) was added at 50 μL/well and incubated on an ice bath for 20 min. After washing once, PI solution was added at 50 μL/well. Incubation was performed for 5 min before detection by flow cytometry (BD Celesta). The GPC3×CD3κλ bispecific antibody can bind to the human peripheral blood T cell with low affinity.

For test [2], the target named is T4, human CD3εγ-Fc heterodimer (human).
T4 construct: also called human CD3 εγ protein; recombinant CD3 εγ protein
T4 chain 1: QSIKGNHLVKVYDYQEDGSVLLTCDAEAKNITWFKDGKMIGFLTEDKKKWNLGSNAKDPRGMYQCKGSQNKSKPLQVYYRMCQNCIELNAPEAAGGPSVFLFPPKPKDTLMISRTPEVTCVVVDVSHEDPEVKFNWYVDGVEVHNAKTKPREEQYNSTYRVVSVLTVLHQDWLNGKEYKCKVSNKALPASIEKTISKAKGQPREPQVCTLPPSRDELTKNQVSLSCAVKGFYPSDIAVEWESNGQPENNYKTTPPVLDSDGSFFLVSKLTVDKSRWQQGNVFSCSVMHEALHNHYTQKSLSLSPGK
T4 chain 2: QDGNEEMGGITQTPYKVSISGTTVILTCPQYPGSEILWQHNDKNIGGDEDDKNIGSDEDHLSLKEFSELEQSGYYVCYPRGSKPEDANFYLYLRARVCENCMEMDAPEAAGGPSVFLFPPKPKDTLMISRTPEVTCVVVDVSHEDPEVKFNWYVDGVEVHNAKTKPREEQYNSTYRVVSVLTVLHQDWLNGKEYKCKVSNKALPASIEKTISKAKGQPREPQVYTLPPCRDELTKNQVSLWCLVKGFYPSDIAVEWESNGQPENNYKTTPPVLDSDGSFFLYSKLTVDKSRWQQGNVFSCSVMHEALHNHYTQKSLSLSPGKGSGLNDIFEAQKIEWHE
In words: SPR (Biacore T200), CD3εγ amine-coupled to the chip, antibody as analyte. The protocol:
(§2) Human or monkey CD3 εγ recombinant antigen at 10 μg/mL was bound to a CMS chip (GE healthcare) by amino coupling, and the antigen binding capacity was controlled to approximately 200 RU. After the baseline was stable, gradient diluted antibodies (initially with 10 μg/mL, 2-fold dilution, 7 gradients) were flowed through the chip at a flow rate of 30 μL/min, with an association time of 350 seconds and a dissociation time of 600 seconds. The kinetic constants were obtained by fitting with 1:1 binding model using Biacore T200 evaluation software.
For orientation: Surface plasmon resonance follows binding to a sensor surface in real time, without labels.

The target of test [3] is T5, cynomolgus monkey CD3εγ-Fc heterodimer (cynomolgus monkey).
T5 construct: also called monkey CD3 εγ protein
T5 chain 1: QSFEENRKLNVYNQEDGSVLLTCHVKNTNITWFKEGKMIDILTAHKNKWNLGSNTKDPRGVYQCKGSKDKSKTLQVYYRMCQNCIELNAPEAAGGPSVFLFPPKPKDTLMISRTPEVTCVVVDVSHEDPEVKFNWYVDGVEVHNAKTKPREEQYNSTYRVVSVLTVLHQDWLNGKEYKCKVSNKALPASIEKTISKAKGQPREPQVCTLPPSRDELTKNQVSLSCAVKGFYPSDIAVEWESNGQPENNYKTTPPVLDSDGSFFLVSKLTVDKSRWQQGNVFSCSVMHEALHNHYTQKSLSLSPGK
T5 chain 2: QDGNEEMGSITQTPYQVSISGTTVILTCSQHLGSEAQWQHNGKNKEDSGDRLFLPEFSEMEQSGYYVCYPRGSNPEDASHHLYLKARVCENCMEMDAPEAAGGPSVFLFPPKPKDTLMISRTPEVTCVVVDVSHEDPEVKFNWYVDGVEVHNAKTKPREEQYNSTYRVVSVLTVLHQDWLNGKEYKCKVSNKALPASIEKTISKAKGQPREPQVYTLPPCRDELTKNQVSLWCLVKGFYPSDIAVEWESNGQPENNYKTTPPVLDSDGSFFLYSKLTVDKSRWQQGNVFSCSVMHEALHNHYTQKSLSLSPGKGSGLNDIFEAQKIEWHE
The description is as above. How it is done: as §2

Numbering of substitutions follows the chain as printed.

The EC50 is the concentration giving half of the maximal effect. One may read the Kd as the concentration at which binding is half-saturated.

B1: GPC3×CD3 κλ002 (bispecific antibody, human IgG4 S228P, kappa, lambda)
light 1: DVVMTQSPLSLPVTPGEPASISCRSSQSIVHSNGNTYLEWYLKKPGQSPQLLIYKVSNRFSGVPDRFSGSGSGTDFTLKISRVEAEDVGVYFCLQVTHVPLTFGQGTKLEIKRTVAAPSVFIFPPSDEQLKSGTASVVCLLNNFYPREAKVQWKVDNALQSGNSQESVTEQDSKDSTYSLSSTLTLSKADYEKHKVYACEVTHQGLSSPVTKSFNRGEC
heavy 1: QVQLVQSGAEVKKPGSSVKVSCKASGYTFADYEIHWVREAPGQGLEWMGAIHPGSGGTAYAQKFQGRVTLTADESSTTAYMELSSLRSEDTAVYYCTRYYSFAYWGQGTLVTVSSASTKGPSVFPLAPCSRSTSESTAALGCLVKDYFPEPVTVSWNSGALTSGVHTFPAVLQSSGLYSLSSVVTVPSSSLGTKTYTCNVDHKPSNTKVDKRVESKYGPPCPPCPAPEFEGGPSVFLFPPKPKDTLMISRTPEVTCVVVDVSQEDPEVQFNWYVDGVEVHNAKTKPREEQFNSTYRVVSVLTVLHQDWLNGKEYKCKVSNKGLASSIEKTISKAKGQPREPQVCTLPPSQEEMTKNQVSLSCAVKGFYPSDIAVEWESNGQPENNYKTTPPVLDSDGSFFLVSKLTVDKSRWQEGNVFSCSVMHEALHNHYTQKSLSLSLGK
light 2: QAVVTQEPSLTVSPGGTVTLTCRSSTGAVTTSNYANWVQEKPGQAPRGLIGGTNKRAPWTPARFSGSLLGGKAALTITGAQAEDEAEYYCVLWYSNLWVFGGGTKLTVLGQPKAAPSVTLFPPSSEELQANKATLVCLISDFYPGAVTVAWKADSSPVKAGVETTTPSKQSNNKYAASSYLSLTPEQWKSHRSYSCQVTHEGSTVEKTVAPTECS
heavy 2: EVQLVESGGGLVQPGGSLRLSCAASGFTFNTYAMNWVRKAPGKGLEWVGRIRSKYNNYATYYADSVKDRFTISRDDSKNSLYLQMNSLKTEDTAVYYCVRHGNFGNSYVSWFAYWGQGTLVTVSSASTKGPSVFPLAPCSRSTSESTAALGCLVKDYFPEPVTVSWNSGALTSGVHTFPAVLQSSGLYSLSSVVTVPSSSLGTKTYTCNVDHKPSNTKVDKRVESKYGPPCPPCPAPEFEGGPSVFLFPPKPKDTLMISRTPEVTCVVVDVSQEDPEVQFNWYVDGVEVHNAKTKPREEQFNSTYRVVSVLTVLHQDWLNGKEYKCKVSNKGLASSIEKTISKAKGQPREPQVYTLPPCQEEMTKNQVSLWCLVKGFYPSDIAVEWESNGQPENNYKTTPPVLDSDGSFFLYSKLTVDKSRWQEGNVFSCSVMHEALHNHYTQKSLSLSLGK
notes: also called GPC3 x CD3 κλ002; GPC3×CD3κλ bispecific antibody
Turning to B1, the EC50 worked out at 2.8 nM with human GPC3 on cells, 3 nM in test [1] and 65 nM in the test with human CD3 on T cells. Besides, the dissociation constant Kd is 15.9 nM in test [2] and 23.9 nM in test [3].

B2: GPC3×CD3 κλ003 (bispecific antibody, human IgG4 S228P, kappa, lambda)
light 1: B1 light 1 with E128K, Q129K
heavy 1: B1 heavy 1 with K145E, K211E
light 2: B1 light 2
heavy 2: B1 heavy 2
notes: also called GPC3 x CD3 κλ003; GPC3×CD3κλ bispecific antibody
For the molecule B2, the values for the EC50 (with human GPC3 on cells; in test [1]; in the test with human CD3 on T cells) were 2.9 nM, 3 nM and 56 nM, respectively. The Kd was 12.1 nM in test [2] and 17.8 nM in test [3].

The values are drawn from patent US20240043568A1 (KEYMED BIOSCIENCES, published 2024).
